Data published in article PMC13429693, “Disease-associated genetic variants can cause missense effects in tissue-specific protein isoforms” (Nature Communications, 2026).

Substrate: Cc1cc(=O)oc2cc(NC(=O)[C@@H]3CCCN3C(=O)[C@@H](N)C(C)C)ccc12
Assay: AMC release kinetics, allosteric sigmoidal fit
Type: cell-based, Homo sapiens
Details: A549 overexpression lysate; […] sitagliptin to exclude DPP4
Excerpt: AMC release kinetics, allosteric sigmoidal fit on DPP9-short (reference DPP9) | Enzyme kinetics for DPP9 reference and AFE isoforms

B1: DPP9-short (reference DPP9) (Homo sapiens) (protein)
chain: MATTGTPTADRGDAAATDDPAARFQVQKHSWDGLRSIIHGSRKYSGLIVNKAPHDFQFVQKTDESGPHSHRLYYLGMPYGSRENSLLYSEIPKKVRKEALLLLSWKQMLDHFQATPHHGVYSREEELLRERKRLGVFGITSYDFHSESGLFLFQASNSLFHCRDGGKNGFMVSPMKPLEIKTQCSGPRMDPKICPADPAFFSFINNSDLWVANIETGEERRLTFCHQGLSNVLDDPKSAGVATFVIQEEFDRFTGYWWCPTASWEGSEGLKTLRILYEEVDESEVEVIHVPSPALEERKTDSYRYPRTGSKNPKIALKLAEFQTDSQGKIVSTQEKELVQPFSSLFPKVEYIARAGWTRDGKYAWAMFLDRPQQWLQLVLLPPALFIPSTENEEQRLASARAVPRNVQPYVVYEEVTNVWINVHDIFYPFPQSEGEDELCFLRANECKTGFCHLYKVTAVLKSQGYDWSEPFSPGEDEFKCPIKEEIALTSGEWEVLARHGSKIWVNEETKLVYFQGTKDTPLEHHLYVVSYEAAGEIVRLTTPGFSHSCSMSQNFDMFVSHYSSVSTPPCVHVYKLSGPDDDPLHKQPRFWASMMEAASCPPDYVPPEIFHFHTRSDVRLYGMIYKPHALQPGKKHPTVLFVYGGPQVQLVNNSFKGIKYLRLNTLASLGYAVVVIDGRGSCQRGLRFEGALKNQMGQVEIEDQVEGLQFVAEKYGFIDLSRVAIHGWSYGGFLSLMGLIHKPQVFKVAIAGAPVTVWMAYDTGYTERYMDVPENNQHGYEAGSVALHVEKLPNEPNRLLILHGFLDENVHFFHTNFLVSQLIRAGKPYQLQIYPNERHSIRCPESGEHYEVTLLHFLQEYL
notes: 863 aa short isoform amplified from H358 cDNA or in-house plasmids; overexpressed in A549 cells, whole cell lysate; dimer
Work on B1 yielded a K0.5 of 4.411 ± 0.752 µM and a Vmax of 2.24 µmol/min/mg.
